The target in data set [1] is T1, MutS (TaqMutS) (Thermus aquaticus, UniProt Q56215 Q56215:1-811).
T1 sequence: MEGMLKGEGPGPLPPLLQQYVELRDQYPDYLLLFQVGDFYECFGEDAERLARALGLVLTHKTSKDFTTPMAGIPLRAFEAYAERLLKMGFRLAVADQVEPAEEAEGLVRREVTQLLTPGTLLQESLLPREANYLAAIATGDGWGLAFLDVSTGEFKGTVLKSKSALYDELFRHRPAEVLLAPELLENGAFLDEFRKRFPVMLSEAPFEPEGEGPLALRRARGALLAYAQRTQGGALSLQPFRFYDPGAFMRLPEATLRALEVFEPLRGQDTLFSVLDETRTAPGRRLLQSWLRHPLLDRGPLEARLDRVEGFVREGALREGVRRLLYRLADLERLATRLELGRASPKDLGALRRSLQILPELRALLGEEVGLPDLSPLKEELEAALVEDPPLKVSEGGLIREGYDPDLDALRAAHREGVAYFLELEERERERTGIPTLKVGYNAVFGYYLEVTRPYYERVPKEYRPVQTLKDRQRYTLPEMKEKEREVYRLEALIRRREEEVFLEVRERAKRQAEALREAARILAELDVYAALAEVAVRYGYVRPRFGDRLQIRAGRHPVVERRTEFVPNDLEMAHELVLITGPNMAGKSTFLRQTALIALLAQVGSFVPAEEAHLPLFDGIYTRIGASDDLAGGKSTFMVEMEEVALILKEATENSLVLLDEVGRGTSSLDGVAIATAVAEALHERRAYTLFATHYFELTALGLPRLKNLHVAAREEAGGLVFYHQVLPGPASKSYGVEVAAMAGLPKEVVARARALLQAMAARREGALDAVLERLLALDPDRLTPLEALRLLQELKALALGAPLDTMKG
The conditions noted are these: error frequency 1/212 to 1/1593; 500 nM MutS, 40 nM DNA, 60 C.

The target of data set [2] is T1, MutS (TaqMutS). As to the kind of experiment: homoduplex recovered in flow-through; white:blue ratio shifted 1:1 to 60:1. The conditions noted are these: chain copies: 2; perfect duplex. As to the method: The 410 bp white:blue test heteroduplex was used to determine the best conditions for separation of a model A or T deletion heteroduplex from perfectly matched homoduplex molecules using TaqMutS. A defined ratio of heteroduplex and homoduplex 410 bp fragments were incubated with TaqMutS at 60° C. for 20 minutes and subsequently passed through enzyme removal columns (Micropure-EZ enzyme removers from Millipore). These columns are marketed as quick alternatives to phenol/chloroform methods for removing proteins from DNA. The aim was to retain the TaqMutS protein bound to heteroduplex DNA in the column and retrieve the homoduplex DNA in the flow-through.

Results on two molecules are retold here after patent US20060134638, “Error reduction in automated gene synthesis” (Blue Heron Biotechnology, Inc., published 2006).

In the data set with MutS (TaqMutS) [1], “354 bp synthetic DNA, error-containing population” had an activity (% errors removed) greater than 85.

B1: 410 bp AflIII/EcoRI homoduplex (pUC121) (dsDNA)
DNA 1: GAAGAGCGCCC
DNA 2: GGGCGCTCTTC
Take B1: the binding result with MutS (TaqMutS) [2] was “no binding”.
